The source of these data is patent US20160002338A1 (Hoffmann-La Roche, published 2016).

In assay [1] the target is human HER3 (full length, on cells) (human, UniProt P21860 20-1342). The assay is described as follows: cell-based or functional assay.
In assay [2] the target is T1, human recombinant HER3 ECD (human, UniProt P21860 20-643).
T1 construct: 68 kDa; also called human-Her3-ECD; full length Her3 ECD
The assay is described as follows: SPR Biacore 3000, 37 C. A general note: In SPR one partner is held on a chip, and binding of the other changes the refractive index at the surface.

A further assay concerns the target T2, HER4 ECD-HRG complex (human, UniProt Q15303 26-651).
T2 construct: HER4 ECD preincubated with a 5-fold molar excess of Heregulin; also called HER-4-ECD-RG
T2 sequence 1: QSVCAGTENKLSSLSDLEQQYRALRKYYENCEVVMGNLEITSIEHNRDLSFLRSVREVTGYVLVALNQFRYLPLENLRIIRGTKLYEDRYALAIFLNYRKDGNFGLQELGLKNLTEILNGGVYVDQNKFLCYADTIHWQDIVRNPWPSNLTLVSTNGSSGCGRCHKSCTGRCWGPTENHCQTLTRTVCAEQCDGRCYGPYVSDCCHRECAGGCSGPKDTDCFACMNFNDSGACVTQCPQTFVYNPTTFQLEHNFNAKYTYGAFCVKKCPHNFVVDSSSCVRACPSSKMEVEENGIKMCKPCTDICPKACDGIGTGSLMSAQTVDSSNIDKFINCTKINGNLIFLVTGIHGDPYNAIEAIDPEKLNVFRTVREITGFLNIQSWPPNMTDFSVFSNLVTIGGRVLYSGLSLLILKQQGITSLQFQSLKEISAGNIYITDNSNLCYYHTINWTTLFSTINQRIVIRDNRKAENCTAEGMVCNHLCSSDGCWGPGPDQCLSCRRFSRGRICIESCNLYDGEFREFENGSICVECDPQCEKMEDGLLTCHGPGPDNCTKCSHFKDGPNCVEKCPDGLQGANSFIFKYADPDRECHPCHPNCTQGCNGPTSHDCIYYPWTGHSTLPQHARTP
T2 sequence 2: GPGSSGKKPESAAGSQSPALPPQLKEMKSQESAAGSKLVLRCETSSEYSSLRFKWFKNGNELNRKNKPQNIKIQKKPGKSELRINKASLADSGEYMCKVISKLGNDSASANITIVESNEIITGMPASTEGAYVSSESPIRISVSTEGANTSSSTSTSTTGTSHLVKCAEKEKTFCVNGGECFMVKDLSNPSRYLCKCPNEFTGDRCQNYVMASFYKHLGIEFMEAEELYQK
Put plainly: SPR Biacore 3000, 37 C.

In another assay the target is T3, HER3 ECD-HRG complex (human, UniProt P21860 20-643).
T3 construct: also called Heregulin/Her-3 ECD
Put plainly: SPR Biacore 3000, 37 C.

Assay [3] deals with T4, HER4 ECD peptide hairpin, overlapping 15-mer peptides (human).
T4 construct: also called β-hairpin of HER4
T4 peptide: PQTFVYNPTTFQLEHNFNA
Put plainly: CelluSpots peptide array.

B1: M-05-74-Fab-Pseudomonas exotoxin conjugate (M-05-74-PE) (other)
light: QIVLTQSPAIMSASPGERVTITCSASSSVSYMHWFQQKPGTSPKLLIYSTSNLASGVPARFSGSGSGTSYSLTISRMEAEDAATYYCQQRSSYPFTFGSGTKLEIKRTVAAPSVFIFPPSDEQLKSGTASVVCLLNNFYPREAKVQWKVDNALQSGNSQESVTEQDSKDSTYSLSSTLTLSKADYEKHKVYACEVTHQGLSSPVTKSFNRGEC
heavy: QVQLQQSGAELAKPGASVKMSCKTSGYTLTDYWIHWVKQRPGQGLEWIGYINPYTGYTESNQKFKDKATLTADKSSNTAYIQLSSLTSEDSAVYYCARPYYYGDYWGQGTTLTVSSASTKGPSVFPLAPSSKSTSGGTAALGCLVKDYFPEPVTVSWNSGALTSGVHTFPAVLQSSGLYSLSSVVTVPSSSLGTQTYICNVNHKPSNTKVDKKVEPKSCGGGSLPETGGGRHRQPRGWEQLYPTGAEFLGDGGAVSFSTRGTQNWTVERLLQAHRQLEEGGYVFVGYHGTFLEAAQSIVFGGVRARSQDLDAIWAGFYIAGDPALAYGYAQDQEPDAAGRIRNGALLRVYVPRSSLPGFYATSLTLAAPEAAGEVERLIGHPLPLRLDAITGPEESGGRLETILGWPLAERTVVIPSAIPTDPRNVGGDLDPSSIPDSEAAISALPDYASQPGKPPREDL
For B1, in assay [1], the “EC50 of cell killing of A549 cells, +HRG beta” value was 0.13 µg/mL and the “EC50 of cell killing of A549 cells, -HRG beta” value stood at 1.93 µg/mL.

B2: humanized variant VH-A/VL-D of anti-HER3 antibody M-05-74 (antibody, V domains shown)
VH: QVQLVQSGAELKKPGASVKVSCRTSGYTLTDYWIHWVRQAPGQGLEWMGYINPYTGYTESNQKFKDRVAMTRDASINTAYMELTSLRSDDTAVYYCARPYYYGDYWGQGTLVTVSS
VL: EIVLTQSPATLSLSPGERATLSCSASSSVSYMHWFQQKPGQPPRLLIYSTSNLASGIPARFSGSGSGTDFTLTISSLEPEDFAVYYCQQRSSYPFTFGGGTKVEIK
notes: also called humanized DIB-74
Regarding B2, the “Molar Ratio MR” value is 0.7 in assay [2], 0.8 with HER4 ECD-HRG complex and 0.8 with HER3 ECD-HRG complex.

B3: anti-HER3 antibody M-08-11 (antibody, V domains shown)
VH: QAYLQQSGAELMRPGASVRMSCQASGYTFTSYTIHWLKQTPRQGLEWIGAIYPRNGDFSYNQKFKDKASLTVDTSSSTAYMHLSSLTSEDSAVYFCARTINYGDWFAYWGQGTLVTVSA
VL: DIQMIQSPASLFVSEGETVIITCRASENIYSNLAWYHQKKGKSPQVLVYAAIKLADGVPLRFSGSGSGTQFSLKINSLQSEDFGSYYCQHFWGPPYTFGSGTNLEIK
notes: also called M-011; <Her3> M-08-11
Turning to B3, the binding result in assay [3] is recorded as “no binding (tested: 1 µg/mL)”.
